Data: patent US20260193313A1 (ALPINE IMMUNE SCIENCES, published 2026)
Positions count from the first letter of the chain named. Names and notes keep the numbering of the source.

How the values were obtained:
CTLA-4 [1] = biological target: T1, CTLA-4 (human, UniProt P16410 36-223); assay: flow cytometry, 11 nM Fc fusion on CHO/CTLA4 transfectants
T1 construct: CHO cells transduced to stably express CTLA-4; also called huCTLA; CHO/CTLA-4
T1 sequence: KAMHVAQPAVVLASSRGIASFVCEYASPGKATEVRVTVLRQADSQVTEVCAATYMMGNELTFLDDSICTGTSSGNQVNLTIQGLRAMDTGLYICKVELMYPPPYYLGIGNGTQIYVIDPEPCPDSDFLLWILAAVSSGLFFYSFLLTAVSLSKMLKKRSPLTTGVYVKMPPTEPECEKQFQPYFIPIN

CD28 [2] = biological target: T2, CD28 (human, UniProt P10747 19-220); assay: flow cytometry, 11 nM Fc fusion on Jurkat cells
CD28 [3] = biological target: T2, CD28; assay: flow cytometry, 25 nM Fc fusion on Jurkat cells
Experimental: (§1) Binding of the CD86 domain variants described above were assayed for binding to CD28 using Jurkat cells or to CTLA-4 using Chinese Hamster Ovary (CHO) cells that were transduced to stably express CTLA-4 (CHO/CTLA-4). For staining by flow cytometry, approximately 100,000 ligand-expressing cells were incubated with various concentrations of each candidate CD86 variant Fc fusion protein. […] To assess binding, cells were stained with an anti-human Fc secondary antibody (Jackson ImmunoResearch, USA), and samples were analyzed on an LSRII (BD Biosciences, Inc., USA) flow cytometer.
(§2) In the Table, the exemplary amino acid substitutions and insertions in the IgV domain are designated by amino acid position number corresponding to amino acid positions in the respective reference unmodified mature CD86 extracellular domain (ECD) sequence set forth in SEQ ID NO:29. The amino acid position is indicated in the middle, with the corresponding unmodified (e.g. wild-type) amino acid listed before the number and the identified variant amino acid substitution listed after the number. Column 2 sets forth the SEQ ID NO identifier for each variant IgV domain contained in the variant IgV-Fc fusion molecule.

CTLA-4 [4] = biological target: T1, CTLA-4; assay: flow cytometry, 25 nM Fc fusion on CHO/CTLA4 transfectants
Experimental: as §1, §2

CD28 [5] = biological target: T2, CD28; assay: cell-based or functional assay
CD28 [6] = biological target: T2, CD28; assay: flow cytometry, Jurkat cells expressing CD28, anti-Fc antibody-PE
Experimental: (§3) To assess binding activity, the exemplary formatted stack constructs were incubated with Jurkat cells expressing CD28, the cognate binding partner of CD86, and with K562 cells transduced to express PDL1, the cognate binding partner of PD-1. The cells (50,000 cells/well) were incubated on ice for 30 min with the formatted stack constructs set forth in Table E7 at various concentrations (starting concentration 100 nM, 8 serial 1:4 dilutions titrated down). Cells were then washed with FACS buffer and resuspended with 50 μL anti-Fc antibody-PE for 30 min. Binding was assessed by flow cytometry and Mean Fluorescence Intensity (MFI) was determined.

PD-L1 = biological target: T3, PD-L1 (human, UniProt Q9NZQ7 19-290); assay: flow cytometry, K562 cells transduced to express PDL1, anti-Fc antibody-PE
T3 construct: also called huPD-L1
Experimental: as §3

T2 sequence (P10747 19-220): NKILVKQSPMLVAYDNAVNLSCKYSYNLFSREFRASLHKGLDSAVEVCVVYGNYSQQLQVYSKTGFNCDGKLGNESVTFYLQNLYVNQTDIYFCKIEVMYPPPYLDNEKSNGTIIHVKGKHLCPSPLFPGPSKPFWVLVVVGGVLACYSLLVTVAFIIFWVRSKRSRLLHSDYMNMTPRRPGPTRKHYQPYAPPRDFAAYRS
T3 sequence (Q9NZQ7 19-290): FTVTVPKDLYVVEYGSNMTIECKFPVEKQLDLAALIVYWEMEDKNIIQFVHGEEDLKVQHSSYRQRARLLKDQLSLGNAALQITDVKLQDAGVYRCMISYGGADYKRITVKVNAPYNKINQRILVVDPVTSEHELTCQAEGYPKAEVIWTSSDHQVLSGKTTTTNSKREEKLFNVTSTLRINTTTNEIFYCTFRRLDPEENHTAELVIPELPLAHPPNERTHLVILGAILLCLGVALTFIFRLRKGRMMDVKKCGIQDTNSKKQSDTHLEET

variant CD86 ECD-Fc Q25L/H90L/P185S/P224L (ECD SEQ ID NO: 116) (Fc fusion)
Fold Increase over WT CD86 ECD (CTLA-4 [1]): 0.5 fold
MFI (CTLA-4 [1]): 9360
MFI (CD28 [2]): 11.9

B1: variant CD86 IgV-Fc M60K/H90L (IgV SEQ ID NO: 128) (Fc fusion)
chain: APLKIQAYFNETADLPCQFANSQNQSLSELVVFWQDQENLVLNEVYLGKEKFDSVHSKYKGRTSFDSDSWTLRLHNLQIKDKGLYQCIILHKKPTGMIRIHQMNSELSVLAGSGGGGSEPKSSDKTHTCPPCPAPEAEGAPSVFLFPPKPKDTLMISRTPEVTCVVVDVSHEDPEVKFNWYVDGVEVHNAKTKPREEQYNSTYRVVSVLTVLHQDWLNGKEYKCKVSNKALPAPIEKTISKAKGQPREPQVYTLPPSRDELTKNQVSLTCLVKGFYPSDIAVEWESNGQPENNYKTTPPVLDSDGSFFLYSKLTVDKSRWQQGNVFSCSVMHEALHNHYTQKSLSLSPG
MFI (CD28 [3]): 20

B2: variant CD86 IgV-Fc Q25L/Q86R/H90L (IgV SEQ ID NO: 126) (Fc fusion)
chain: B1 chain with Q25L, K60M, Q86R
Fold Increase over WT CD86 ECD (CTLA-4 [4]): 1.3 fold
MFI (CTLA-4 [4]): 4940
Fold Increase over WT CD86 ECD, Jurkat/IL2 Luciferase Assay (10 nM OKT3 + 50 nM CD86 IgV-Fc) (CD28 [5]): 6.1 fold
Relative luminescence units (RLU), Jurkat/IL2 Luciferase Assay (10 nM OKT3 + 50 nM CD86 IgV-Fc) (CD28 [5]): 800 RLU
Fold Increase over WT CD86 ECD (CD28 [3]): 128 fold
MFI (CD28 [3]): 1570

B3: formatted PD-1-CD86 stack, FIG. 14A format, SEQ ID NO: 326 homodimer (Fc fusion)
chain: DSPDRPWNPPTFSPALLVVTEGDNATFTCSFSNTSESFVLNWYRMSPSNQTDKLAAFPEDRNQPGQDRRFRVTQLPNGRDYHMSVDRARRNDSGTYLCGAITLAPKVQIDESLRVELRVTERGSGGGGSEPKSSDKTHTCPPCPAPEAEGAPSVFLFPPKPKDTLMISRTPEVTCVVVDVSHEDPEVKFNWYVDGVEVHNAKTKPREEQYNSTYRVVSVLTVLHQDWLNGKEYKCKVSNKALPAPIEKTISKAKGQPREPQVYTLPPSRDELTKNQVSLTCLVKGFYPSDIAVEWESNGQPENNYKTTPPVLDSDGSFFLYSKLTVDKSRWQQGNVFSCSVMHEALHNHYTQKSLSLSPGGGGGSGGGGSGGGGSGGGGSAPLKIQAYFNETADLPCQFANSQNLSLSELVVFWQDQENLVLNEVYLGKEKFDSVHSKYMGRTSFDSDSWTLRLHNLQIKDKGLYRCIILHKKPTGMIRIHQMSSELSVLANFSQPEIVPISNITENVYINLTCSSIHGYPEPKKMSVLLRTKNSTIEYDGVMQKSQDNVTELYDVSISLSVSFPDVTSNMTIFCILETDKTRLLSSPFSIELEDPQPPPDHIP
notes: also called variant PD1 ECD - Fc - variant CD86 ECD
binding result (CD28 [6]): binds
binding result (PD-L1): binds

B4: formatted PD-1-CD86 stack, FIG. 14A format, SEQ ID NO: 327 homodimer (Fc fusion)
chain: DSPDRPWNPPTFSPALLVVTEGDNATFTCSFSNTSESFVLNWYRMSPSNQTDKLAAFPEDRNQPGQDRRFRVTQLPNGRDYHMSVDRARRNDSGTYLCGAITLAPKVQIDESLRVELRVTERGSGGGGSEPKSSDKTHTCPPCPAPEAEGAPSVFLFPPKPKDTLMISRTPEVTCVVVDVSHEDPEVKFNWYVDGVEVHNAKTKPREEQYNSTYRVVSVLTVLHQDWLNGKEYKCKVSNKALPAPIEKTISKAKGQPREPQVYTLPPSRDELTKNQVSLTCLVKGFYPSDIAVEWESNGQPENNYKTTPPVLDSDGSFFLYSKLTVDKSRWQQGNVFSCSVMHEALHNHYTQKSLSLSPGGGGGSGGGGSGGGGSGGGGSAPLKIQAYFNETADLPCQFANSQNLSLSELVVFWQDQENLVLNEVYLGKEKFDSVHSKYMGRTSFDSDSWTLRLHNLQIKDKGLYRCIILHKKPTGMIRIHQMSSELSVLA
notes: also called variant PD1 ECD - Fc - variant CD86 IgV
binding result (CD28 [6]): binds
binding result (PD-L1): binds

B5: formatted PD-1-CD86 stack, FIG. 14C format (heterodimer SEQ ID NOs 328 + 330) (Fc fusion)
chain 1: DSPDRPWNPPTFSPALLVVTEGDNATFTCSFSNTSESFVLNWYRMSPSNQTDKLAAFPEDRNQPGQDRRFRVTQLPNGRDYHMSVDRARRNDSGTYLCGAITLAPKVQIDESLRVELRVTERGSGGGGSEPKSSDKTHTCPPCPAPEAEGAPSVFLFPPKPKDTLMISRTPEVTCVVVDVSHEDPEVKFNWYVDGVEVHNAKTKPREEQYNSTYRVVSVLTVLHQDWLNGKEYKCKVSNKALPAPIEKTISKAKGQPREPQVYTLPPCREEMTKNQVSLWCLVKGFYPSDIAVEWESNGQPENNYKTTPPVLDSDGSFFLYSKLTVDKSRWQQGNVFSCSVMHEALHNHYTQKSLSLSPG
chain 2: EPKSSDKTHTCPPCPAPEAEGAPSVFLFPPKPKDTLMISRTPEVTCVVVDVSHEDPEVKFNWYVDGVEVHNAKTKPREEQYNSTYRVVSVLTVLHQDWLNGKEYKCKVSNKALPAPIEKTISKAKGQPREPQVCTLPPSREEMTKNQVSLSCAVKGFYPSDIAVEWESNGQPENNYKTTPPVLDSDGSFFLVSKLTVDKSRWQQGNVFSCSVMHEALHNHYTQKSLSLSPGGGGGSGGGGSGGGGSGGGGSAPLKIQAYFNETADLPCQFANSQNLSLSELVVFWQDQENLVLNEVYLGKEKFDSVHSKYMGRTSFDSDSWTLRLHNLQIKDKGLYRCIILHKKPTGMIRIHQMSSELSVLA
notes: Knobs-into-hole heterodimer
binding result (CD28 [6]): binds
binding result (PD-L1): binds

B6: formatted PD-1-CD86 stack, FIG. 14D format (heterodimer SEQ ID NOs 328 + 331) (Fc fusion)
chain 1: B5 chain 1
chain 2: B4 chain with Y263C, D270E, L272M, T280S, L282A, Y321V
notes: Knobs-into-hole heterodimer
binding result (CD28 [6]): binds
binding result (PD-L1): binds
